Molecular target: CCR1 on HEK293 cells / HEK293 membranes stably expressing CCR1 (UniProt P32246)
Assay: cell-based or functional assay

Sequence of CCR1 on HEK293 cells / HEK293 membranes stably expressing CCR1 (P32246 whole entry): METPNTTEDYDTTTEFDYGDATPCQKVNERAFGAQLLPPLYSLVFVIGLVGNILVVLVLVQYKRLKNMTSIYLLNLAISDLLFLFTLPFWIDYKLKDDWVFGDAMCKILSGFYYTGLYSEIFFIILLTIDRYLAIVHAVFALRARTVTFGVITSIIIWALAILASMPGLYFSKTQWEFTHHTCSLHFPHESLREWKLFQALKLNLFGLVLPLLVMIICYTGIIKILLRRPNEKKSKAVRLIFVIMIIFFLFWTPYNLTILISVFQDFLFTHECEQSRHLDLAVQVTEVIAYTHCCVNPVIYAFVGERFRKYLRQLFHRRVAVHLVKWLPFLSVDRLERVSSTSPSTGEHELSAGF

calcium flux (dose response curve): 2 nM
Substance: CCL14-fluorescein (CCL14 9-74 with added C-terminal cysteine labeled with fluorescein-5-maleimide) (from UniProt Q16627 28-93) (ligand)
